B1: BRCA1-A complex subunit RAP80 (Homo sapiens), Q96RL1 (parent)
chain: MPRRKKKVKEVSESRNLEKKDVETTSSVSVKRKRRLEDAFIVISDSDGEEPKEENGLQKTKTKQSNRAKCLAKRKIAQMTEEEQFALALKMSEQEAREVNSQEEEEEELLRKAIAESLNSCRPSDASATRSRPLATGPSSQSHQEKTTDSGLTEGIWQLVPPSLFKGSHISQGNEAEEREEPWDHTEKTEEEPVSGSSGSWDQSSQPVFENVNVKSFDRCTGHSAEHTQCGKPQESTGRGSAFLKAVQGSGDTSRHCLPTLADAKGLQDTGGTVNYFWGIPFCPDGVDPNQYTKVILCQLEVYQKSLKMAQRQLLNKKGFGEPVLPRPPSLIQNECGQGEQASEKNECISEDMGDEDKEERQESRASDWHSKTKDFQESSIKSLKEKLLLEEEPTTSHGQSSQGIVEETSEEGNSVPASQSVAALTSKRSLVLMPESSAEEITVCPETQLSSSETFDLEREVSPGSRDILDGVRIIMADKEVGNKEDAEKEVAISTFSSSNQVSCPLCDQCFPPTKIERHAMYCNGLMEEDTVLTRRQKEAKTKSDSGTAAQTSLDIDKNEKCYLCKSLVPFREYQCHVDSCLQLAKADQGDGPEGSGRACSTVEGKWQQRLKNPKEKGHSEGRLLSFLEQSEHKTSDADIKSSETGAFRVPSPGMEEAGCSREMQSSFTRRDLNESPVKSFVSISEATDCLVDFKKQVTVQPGSRTRTKAGRGRRRKF
partner: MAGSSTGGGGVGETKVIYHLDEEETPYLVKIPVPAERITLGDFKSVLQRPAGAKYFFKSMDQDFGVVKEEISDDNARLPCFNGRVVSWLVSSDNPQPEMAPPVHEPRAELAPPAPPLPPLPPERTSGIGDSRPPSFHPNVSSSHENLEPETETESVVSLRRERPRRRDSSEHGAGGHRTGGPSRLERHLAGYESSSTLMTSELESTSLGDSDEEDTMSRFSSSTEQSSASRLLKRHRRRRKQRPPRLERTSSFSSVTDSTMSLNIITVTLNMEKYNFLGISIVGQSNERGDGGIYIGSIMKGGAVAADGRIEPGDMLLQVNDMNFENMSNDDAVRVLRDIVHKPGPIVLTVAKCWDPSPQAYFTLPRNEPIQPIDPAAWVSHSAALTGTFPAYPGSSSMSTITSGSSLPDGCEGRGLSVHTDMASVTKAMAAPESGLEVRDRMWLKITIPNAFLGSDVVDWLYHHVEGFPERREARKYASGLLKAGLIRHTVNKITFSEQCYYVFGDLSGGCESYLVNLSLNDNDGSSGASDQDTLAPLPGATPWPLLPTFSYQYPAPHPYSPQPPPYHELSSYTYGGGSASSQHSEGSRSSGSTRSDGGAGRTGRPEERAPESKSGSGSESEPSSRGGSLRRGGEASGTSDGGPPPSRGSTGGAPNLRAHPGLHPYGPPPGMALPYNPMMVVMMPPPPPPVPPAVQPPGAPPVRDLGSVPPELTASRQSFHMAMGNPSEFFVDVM
B2: Vasculin (Homo sapiens), Q86WP2 (parent)
chain: MAQHDFAPAWLNFPTPPSSTKSSLNFEKHSENFAWTENRYDVNRRRHNSSDGFDSAIGRPNGGNFGRKEKNGWRTHGRNGTENINHRGGYHGGSSRSRSSIFHAGKSQGLHENNIPDNETGRKEDKRERKQFEAEDFPSLNPEYEREPNHNKSLAAGVWEYPPNPKSRAPRMLVIKKGNTKDLQLSGFPVVGNLPSQPVKNGTGPSVYKGLVPKPAAPPTKPTQWKSQTKENKVGTSFPHESTFGVGNFNAFKSTAKNFSPSTNSVKECNRSNSSSPVDKLNQQPRLTKLTRMRTDKKSEFLKALKRDRVEEEHEDESRAGSEKDDDSFNLHNSNSTHQERDINRNFDENEIPQENGNASVISQQIIRSSTFPQTDVLSSSLEAEHRLLKEMGWQEDSENDETCAPLTEDEMREFQVISEQLQKNGLRKNGILKNGLICDFKFGPWKNSTFKPTTENDDTETSSSDTSDDDDV
partner: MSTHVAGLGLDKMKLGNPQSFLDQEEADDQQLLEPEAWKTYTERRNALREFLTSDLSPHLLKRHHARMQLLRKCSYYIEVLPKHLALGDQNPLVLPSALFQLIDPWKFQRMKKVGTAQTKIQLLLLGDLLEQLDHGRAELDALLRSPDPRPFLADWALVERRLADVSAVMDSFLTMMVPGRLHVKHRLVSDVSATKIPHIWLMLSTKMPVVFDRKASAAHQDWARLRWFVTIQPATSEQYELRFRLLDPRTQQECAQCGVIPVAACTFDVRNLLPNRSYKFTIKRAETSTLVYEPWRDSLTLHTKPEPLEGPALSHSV
B3: Small glutamine-rich tetratricopeptide repeat-containing protein beta (Homo sapiens), Q96EQ0 (parent)
chain: MSSIKHLVYAVIRFLREQSQMDTYTSDEQESLEVAIQCLETVFKISPEDTHLAVSQPLTEMFTSSFCKNDVLPLSNSVPEDVGKADQLKDEGNNHMKEENYAAAVDCYTQAIELDPNNAVYYCNRAAAQSKLGHYTDAIKDCEKAIAIDSKYSKAYGRMGLALTALNKFEEAVTSYQKALDLDPENDSYKSNLKIAEQKLREVSSPTGTGLSFDMASLINNPAFISMAASLMQNPQVQQLMSGMMTNAIGGPAAGVGGLTDLSSLIQAGQQFAQQIQQQNPELIEQLRNHIRSRSFSSSAEEHS
B4: Small glutamine-rich tetratricopeptide repeat-containing protein beta (Homo sapiens), Q96EQ0 (parent)
chain: B3 chain
partner: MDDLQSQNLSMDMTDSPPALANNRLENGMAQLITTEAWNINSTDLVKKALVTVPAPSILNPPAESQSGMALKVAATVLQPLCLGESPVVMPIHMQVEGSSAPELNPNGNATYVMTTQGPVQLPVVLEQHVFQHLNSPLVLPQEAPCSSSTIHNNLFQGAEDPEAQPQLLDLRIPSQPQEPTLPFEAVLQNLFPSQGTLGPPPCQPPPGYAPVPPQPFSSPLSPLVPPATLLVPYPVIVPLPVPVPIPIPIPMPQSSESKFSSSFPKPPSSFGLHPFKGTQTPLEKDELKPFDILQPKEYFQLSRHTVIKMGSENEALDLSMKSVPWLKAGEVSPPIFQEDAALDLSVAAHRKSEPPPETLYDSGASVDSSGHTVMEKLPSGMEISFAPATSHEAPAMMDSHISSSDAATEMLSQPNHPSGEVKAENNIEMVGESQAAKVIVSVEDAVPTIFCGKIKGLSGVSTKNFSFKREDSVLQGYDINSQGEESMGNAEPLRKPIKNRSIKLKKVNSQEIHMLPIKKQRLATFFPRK
B5: Ceramide transfer protein (Homo sapiens), Q9Y5P4 (parent)
chain: MSDNQSWNSSGSEEDPETESGPPVERCGVLSKWTNYIHGWQDRWVVLKNNALSYYKSEDETEYGCRGSICLSKAVITPHDFDECRFDISVNDSVWYLRAQDPDHRQQWIDAIEQHKTESGYGSESSLRRHGSMVSLVSGASGYSATSTSSFKKGHSLREKLAEMETFRDILCRQVDTLQKYFDACADAVSKDELQRDKVVEDDEDDFPTTRSDGDFLHSTNGNKEKLFPHVTPKGINGIDFKGEAITFKATTAGILATLSHCIELMVKREDSWQKRLDKETEKKRRTEEAYKNAMTELKKKSHFGGPDYEEGPNSLINEEEFFDAVEAALDRQDKIEEQSQSEKVRLHWPTSLPSGDAFSSVGTHRFVQKPYSRSSSMSSIDLVSASDDVHRFSSQVEEMVQNHMTYSLQDVGGDANWQLVVEEGEMKVYRREVEENGIVLDPLKATHAVKGVTGHEVCNYFWNVDVRNDWETTIENFHVVETLADNAIIIYQTHKRVWPASQRDVLYLSVIRKIPALTENDPETWIVCNFSVDHDSAPLNNRCVRAKINVAMICQTLVSPPEGNQEISRDNILCKITYVANVNPGGWAPASVLRAVAKREYPKFLKRFTSYVQEKTAGKPILF

Variants of: B1
Conditions: with dvl2_human DVL2, O14641
With Q631E the “effect of a mutation on the interaction” value was “with no effect”.

Variants of: B1
Conditions: with dvl2_human DVL2, O14641
Remark: another data set of the same source
R34H was tested, and the “effect of a mutation on the interaction” value was “disrupting interaction strength”.

Variants of: B2
Conditions: with fnd11_human FNDC11, Q9BVV2
With R129C the “effect of a mutation on the interaction” value was “with no effect”.

Variants of: B2
Conditions: with fnd11_human FNDC11, Q9BVV2
Remark: another data set of the same source
With R292Q the “effect of a mutation on the interaction” value was “with no effect”.

Variants of: B3
Conditions: with fbln4_human EFEMP2, O95967
Sequence of fbln4_human EFEMP2, O95967 (O95967 whole entry): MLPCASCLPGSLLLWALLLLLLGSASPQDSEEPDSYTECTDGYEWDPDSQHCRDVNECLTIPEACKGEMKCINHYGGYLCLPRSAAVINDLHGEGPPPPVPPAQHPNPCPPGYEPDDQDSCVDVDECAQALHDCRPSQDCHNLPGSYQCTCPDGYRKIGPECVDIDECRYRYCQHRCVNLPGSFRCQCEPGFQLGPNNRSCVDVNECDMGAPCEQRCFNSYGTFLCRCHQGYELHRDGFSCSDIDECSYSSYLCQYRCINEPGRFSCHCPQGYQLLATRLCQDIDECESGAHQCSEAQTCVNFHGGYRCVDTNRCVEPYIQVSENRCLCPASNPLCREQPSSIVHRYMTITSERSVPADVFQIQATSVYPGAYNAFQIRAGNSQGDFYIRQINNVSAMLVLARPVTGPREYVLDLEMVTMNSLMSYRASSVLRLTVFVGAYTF
R292W was tested, and the “effect of a mutation on the interaction” value was “with no effect”.

Variants of: B3
Conditions: with il6rb_human IL6ST
For R292W, the “effect of a mutation on the interaction” value was “disrupting interaction strength”.

Variants of: B4
Conditions: with rai2_human RAI2, Q9Y5P3
R292W was tested, and the “effect of a mutation on the interaction” value was “with no effect”.

Variants of: B5
Conditions: with ar6p1_human ARL6IP1, Q15041
Sequence of ar6p1_human ARL6IP1, Q15041 (Q15041 whole entry): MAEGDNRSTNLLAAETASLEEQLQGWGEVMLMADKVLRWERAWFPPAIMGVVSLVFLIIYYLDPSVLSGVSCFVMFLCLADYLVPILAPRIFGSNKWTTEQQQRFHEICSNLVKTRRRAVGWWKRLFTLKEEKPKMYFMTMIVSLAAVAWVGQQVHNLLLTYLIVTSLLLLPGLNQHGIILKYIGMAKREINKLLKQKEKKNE
T166A was tested, and the “effect of a mutation on the interaction” value was “with no effect”.

Variants of: B5
Conditions: with rtn3_human RTN3, O95197
Sequence of rtn3_human RTN3, O95197 (O95197 whole entry): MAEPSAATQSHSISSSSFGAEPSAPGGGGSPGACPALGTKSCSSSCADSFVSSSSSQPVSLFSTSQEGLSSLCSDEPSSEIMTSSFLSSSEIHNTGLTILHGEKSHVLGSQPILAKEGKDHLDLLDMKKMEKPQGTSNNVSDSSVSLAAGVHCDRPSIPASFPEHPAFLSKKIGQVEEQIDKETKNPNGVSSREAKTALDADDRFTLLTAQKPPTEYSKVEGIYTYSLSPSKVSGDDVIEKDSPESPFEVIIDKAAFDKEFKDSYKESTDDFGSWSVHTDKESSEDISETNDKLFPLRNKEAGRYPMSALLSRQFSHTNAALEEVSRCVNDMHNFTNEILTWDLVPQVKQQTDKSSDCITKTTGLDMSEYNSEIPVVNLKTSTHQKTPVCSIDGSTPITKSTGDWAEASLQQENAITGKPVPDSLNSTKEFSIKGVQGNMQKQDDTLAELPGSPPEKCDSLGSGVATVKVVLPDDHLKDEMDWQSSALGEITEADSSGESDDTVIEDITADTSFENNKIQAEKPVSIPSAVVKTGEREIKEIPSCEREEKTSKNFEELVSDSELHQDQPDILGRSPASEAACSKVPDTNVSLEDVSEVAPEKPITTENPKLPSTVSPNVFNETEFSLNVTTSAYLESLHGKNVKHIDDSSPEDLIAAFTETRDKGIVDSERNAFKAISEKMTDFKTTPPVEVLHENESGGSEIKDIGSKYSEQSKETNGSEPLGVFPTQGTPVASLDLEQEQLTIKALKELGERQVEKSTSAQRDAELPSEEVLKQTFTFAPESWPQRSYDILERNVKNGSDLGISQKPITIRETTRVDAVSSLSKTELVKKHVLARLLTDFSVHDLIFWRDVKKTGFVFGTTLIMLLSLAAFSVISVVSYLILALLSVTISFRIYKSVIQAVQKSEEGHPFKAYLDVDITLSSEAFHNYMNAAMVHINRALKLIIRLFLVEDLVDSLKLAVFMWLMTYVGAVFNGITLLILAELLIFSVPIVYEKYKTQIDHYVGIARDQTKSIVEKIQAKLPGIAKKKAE
With T166A the “effect of a mutation on the interaction” value was “with no effect”.

Variants of: B5
Conditions: with rtn4_human RTN4, Q9NQC3
Sequence of rtn4_human RTN4, Q9NQC3 (Q9NQC3 whole entry): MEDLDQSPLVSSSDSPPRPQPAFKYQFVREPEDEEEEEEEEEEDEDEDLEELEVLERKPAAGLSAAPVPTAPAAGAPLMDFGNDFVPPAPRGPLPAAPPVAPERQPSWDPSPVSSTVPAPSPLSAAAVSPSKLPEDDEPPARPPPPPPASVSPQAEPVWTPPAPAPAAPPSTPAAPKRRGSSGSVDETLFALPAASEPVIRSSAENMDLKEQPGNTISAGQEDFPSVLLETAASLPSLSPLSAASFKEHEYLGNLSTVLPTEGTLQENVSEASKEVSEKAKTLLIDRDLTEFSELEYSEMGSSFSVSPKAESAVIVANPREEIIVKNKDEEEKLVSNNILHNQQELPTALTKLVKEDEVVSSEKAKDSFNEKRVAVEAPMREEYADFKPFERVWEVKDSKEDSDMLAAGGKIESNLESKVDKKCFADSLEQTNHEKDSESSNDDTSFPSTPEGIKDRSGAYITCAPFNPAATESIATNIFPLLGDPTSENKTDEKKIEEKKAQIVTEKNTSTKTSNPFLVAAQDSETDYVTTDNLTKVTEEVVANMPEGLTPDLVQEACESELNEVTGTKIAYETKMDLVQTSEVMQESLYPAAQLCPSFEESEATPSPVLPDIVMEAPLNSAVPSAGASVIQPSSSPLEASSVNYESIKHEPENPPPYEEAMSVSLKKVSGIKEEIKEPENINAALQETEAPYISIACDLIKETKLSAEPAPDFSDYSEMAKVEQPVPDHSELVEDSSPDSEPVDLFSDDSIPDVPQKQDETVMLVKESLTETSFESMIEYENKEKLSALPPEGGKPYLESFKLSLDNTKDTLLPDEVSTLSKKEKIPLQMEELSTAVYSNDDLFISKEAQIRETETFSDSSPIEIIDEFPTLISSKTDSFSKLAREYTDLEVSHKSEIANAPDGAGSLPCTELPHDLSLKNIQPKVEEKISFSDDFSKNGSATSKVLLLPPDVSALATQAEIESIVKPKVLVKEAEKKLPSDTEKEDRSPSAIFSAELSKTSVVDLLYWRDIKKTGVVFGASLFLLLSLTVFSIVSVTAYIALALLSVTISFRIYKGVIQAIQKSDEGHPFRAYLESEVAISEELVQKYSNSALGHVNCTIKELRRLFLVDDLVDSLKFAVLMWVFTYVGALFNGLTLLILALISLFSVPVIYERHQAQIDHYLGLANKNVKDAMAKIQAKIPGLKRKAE
For T166A, the “effect of a mutation on the interaction” value was “with no effect”.

Source: IntAct's records for PubMed 29892012
